Assay results from US20110171205A1.

Molecular target: hSlo, human pore-forming α-subunit of the high conductance calcium-activated potassium channel (maxi-K) (human) (UniProt Q12791)
Assay: cell-based or functional assay

Sequence of UniProt Q12791 (Q12791 whole entry): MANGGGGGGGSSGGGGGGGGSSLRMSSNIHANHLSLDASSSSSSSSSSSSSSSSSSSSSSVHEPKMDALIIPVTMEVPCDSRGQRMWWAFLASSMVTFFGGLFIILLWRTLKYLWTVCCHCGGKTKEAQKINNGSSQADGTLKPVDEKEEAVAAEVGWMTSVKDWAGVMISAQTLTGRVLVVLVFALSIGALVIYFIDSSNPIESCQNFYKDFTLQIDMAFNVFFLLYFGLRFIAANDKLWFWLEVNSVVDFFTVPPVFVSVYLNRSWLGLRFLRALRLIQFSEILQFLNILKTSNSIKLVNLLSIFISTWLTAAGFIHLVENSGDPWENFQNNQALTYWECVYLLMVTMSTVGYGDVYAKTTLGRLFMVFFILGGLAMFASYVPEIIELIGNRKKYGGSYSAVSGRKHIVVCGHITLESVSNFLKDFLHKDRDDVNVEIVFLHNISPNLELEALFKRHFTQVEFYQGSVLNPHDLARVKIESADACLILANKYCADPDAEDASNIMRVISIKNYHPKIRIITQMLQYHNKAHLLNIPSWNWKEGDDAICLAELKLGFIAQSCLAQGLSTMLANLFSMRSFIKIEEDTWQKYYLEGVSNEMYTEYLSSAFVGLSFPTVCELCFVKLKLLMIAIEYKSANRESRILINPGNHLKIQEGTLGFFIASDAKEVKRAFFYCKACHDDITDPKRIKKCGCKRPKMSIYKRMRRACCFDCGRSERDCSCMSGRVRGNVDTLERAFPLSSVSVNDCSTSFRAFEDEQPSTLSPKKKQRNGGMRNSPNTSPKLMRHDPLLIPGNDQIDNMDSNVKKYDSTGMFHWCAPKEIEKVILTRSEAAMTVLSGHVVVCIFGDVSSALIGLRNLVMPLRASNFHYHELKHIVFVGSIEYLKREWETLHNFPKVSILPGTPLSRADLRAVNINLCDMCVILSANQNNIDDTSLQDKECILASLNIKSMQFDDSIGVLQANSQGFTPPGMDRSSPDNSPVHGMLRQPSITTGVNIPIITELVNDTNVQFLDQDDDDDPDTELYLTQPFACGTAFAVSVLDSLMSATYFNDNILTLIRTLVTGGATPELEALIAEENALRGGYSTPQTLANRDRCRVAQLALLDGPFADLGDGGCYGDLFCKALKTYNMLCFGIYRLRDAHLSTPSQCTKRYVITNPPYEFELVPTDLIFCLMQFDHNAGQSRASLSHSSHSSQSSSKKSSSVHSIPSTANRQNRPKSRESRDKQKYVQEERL

iberiotoxin (from UniProt P24663 1-37) (peptide)
block of hSlo current (whole cell patch) at 300 nM toxin: > 90%

charybdotoxin (from UniProt P13487 23-59) (peptide)
block of hSlo current (whole cell patch) at 300 nM toxin: > 90%
